Reference: the supplement of paper PMC9233669
Fewer inactive variants are shown than the library holds.

Key:
biotinyl-Ile-oxazolone = assay: self-aminoacylation, catalytic enhancement (BIO) (fold over background); higher = more active; k-Seq, kA / k0A0; sequences stand for … in GGGAAUGGAUCCACAUCUACGAAUUC…UUCACUGCAGACUUGACGAAGCUG
In short: (§1)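 Each biotinyl-aminoacyl-oxazolone, at 2–1250 μM, was incubated with mutagenized RNA pools (0.43 μM) carrying a 21-nt variable region. The 50 μL reactions contained HEPES/NaCl/KCl/MgCl2/CaCl2 buffer with 5% acetonitrile at pH 6.9–7.0 and ran for 90 minutes at room temperature. After streptavidin capture, RNA was measured by qPCR in triplicate and by Illumina sequencing, and catalytic enhancement was calculated as median kA over the uncatalyzed rate from a pseudo-first-order fit of per-sequence fraction reacted.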

biotinyl-Met-oxazolone = assay: self-aminoacylation, catalytic enhancement (BMO) (fold over background); higher = more active; k-Seq, kA / k0A0; sequences stand for … in GGGAAUGGAUCCACAUCUACGAAUUC…UUCACUGCAGACUUGACGAAGCUG
In short: as §1

biotinyl-Trp-oxazolone = assay: self-aminoacylation, catalytic enhancement (BWO) (fold over background); higher = more active; k-Seq, kA / k0A0; sequences stand for … in GGGAAUGGAUCCACAUCUACGAAUUC…UUCACUGCAGACUUGACGAAGCUG
In short: as §1

biotinyl-Phe-oxazolone = assay: self-aminoacylation, catalytic enhancement (BFO) (fold over background); higher = more active; k-Seq, kA / k0A0; sequences stand for … in GGGAAUGGAUCCACAUCUACGAAUUC…UUCACUGCAGACUUGACGAAGCUG
In short: as §1

biotinyl-Val-oxazolone = assay: self-aminoacylation, catalytic enhancement (BVO) (fold over background); higher = more active; k-Seq, kA / k0A0; sequences stand for … in GGGAAUGGAUCCACAUCUACGAAUUC…UUCACUGCAGACUUGACGAAGCUG
In short: as §1

biotinyl-Leu-oxazolone = assay: self-aminoacylation, catalytic enhancement (BLO) (fold over background); higher = more active; k-Seq, kA / k0A0; sequences stand for … in GGGAAUGGAUCCACAUCUACGAAUUC…UUCACUGCAGACUUGACGAAGCUG
In short: as §1

Sequence	self-aminoacylation (biotinyl-Ile-oxazolone)	self-aminoacylation (biotinyl-Met-oxazolone)	self-aminoacylation (biotinyl-Trp-oxazolone)	self-aminoacylation (biotinyl-Phe-oxazolone)	self-aminoacylation (biotinyl-Val-oxazolone)	self-aminoacylation (biotinyl-Leu-oxazolone)
AUUCACCUAUGUCAUCUGGUG [Fam2.2 aminoacylation ribozyme variant]	1.79	2.04	2.01	1.9	1.62	2.51
AUUCACCUAUGUUAUCGGGUG [Fam2.2 aminoacylation ribozyme variant]	3.19	5.62	5.74	41.3	3.43	7.49
AUUCACCUCAGUCAUCGGGUG [Fam2.2 aminoacylation ribozyme variant]	4.75	7.34	6.63	56.6	4.58	8.93
AUUCACCUCGCUCAUCGGGUG [Fam2.2 aminoacylation ribozyme variant]	2.57	3.42	3.01	13.5	2.74	3.61
AUUCACCUCGGCCAUCGGGUG [Fam2.2 aminoacylation ribozyme variant]	4.23	6.8	6.78	56.7	5.61	7.44
AUUCACCUCGGUCACCGGGUG [Fam2.2 aminoacylation ribozyme variant]	5	6.37	8.88	41.9	4.43	6.77
AUUCACCUCGGUCAUGGGGUG [Fam2.2 aminoacylation ribozyme variant]	2.57	3.94	4.7	28	2.96	4.31
AUUCACCUCGGUCAUUGGGUG [Fam2.2 aminoacylation ribozyme variant]	3.14	4.91	4.34	35.5	2.91	5.53
AUUCACCUCGGUCCUCGGGUG [Fam2.2 aminoacylation ribozyme variant]	4.17	6.33	7.07	53.2	4.23	7.19
AUUCACCUCGGUGAUCGGGUG [Fam2.2 aminoacylation ribozyme variant]	4.21	4.66	6	28.3	4.6	5.47
AUUCACCUGGGUCAUCGAGUG [Fam2.2 aminoacylation ribozyme variant]	2.4	3.54	3.74	3.55	2.59	4.18
AUUCACCUGGGUCAUUGGGUG [Fam2.2 aminoacylation ribozyme variant]	3.51	4.52	4.15	31.1	4.03	6.07
AUUCACCUGGGUCUUCGGGUG [Fam2.2 aminoacylation ribozyme variant]	4.14	5.53	5.25	38.6	5.01	7.31
AUUCACCUGGUCAUCGAGUGA [Fam2.1 aminoacylation ribozyme variant]	3.55	5.88	8.2	9.12	3.58	5.93
AUUCACCUUAGUCAUCGGGUG [Fam2.2 aminoacylation ribozyme variant]	3.73	6.02	5.66	38.8	3.83	7.94
AUUCACCUUGGGCAUCGGGUG [Fam2.2 aminoacylation ribozyme variant]	3.58	3.99	5.41	22.9	3.69	4.33
AUUCACCUUGGUAAUCGGGUG [Fam2.2 aminoacylation ribozyme variant]	2.23	3.95	3.98	24.4	2.35	5.19
AUUCACCUUGGUCACCGGGUG [Fam2.2 aminoacylation ribozyme variant]	4.82	5.58	5.4	27.5	4.2	6.72
AUUCACCUUGGUCAUCCGGUG [Fam2.2 aminoacylation ribozyme variant]	6.27	8.93	7.75	60.2	6.17	11.5
AUUCACCUUGGUCAUCGCGUG [Fam2.2 aminoacylation ribozyme variant]	8.37	15.3	14.1	117	8.42	18.2
AUUCACCUUGGUCAUCGGCUG [Fam2.2 aminoacylation ribozyme variant]	1.64	1.52	1.66	7.58	2.19	1.7
AUUCACCUUGGUCAUCGGGCG [Fam2.2 aminoacylation ribozyme variant]	2.74	2.81	2.93	3.77	2.77	3.24
AUUCACCUUGGUCAUCGGGUG [Fam2.2 aminoacylation ribozyme variant]	4.71	7.9	7.43	55.7	4.97	9.96
AUUCACCUUGGUCAUCGGGUU [Fam2.2 aminoacylation ribozyme variant]	1.67	1.84	2.14	8.05	2.08	2.38
AUUCACCUUGGUCAUGGGGUG [Fam2.2 aminoacylation ribozyme variant]	2.91	4.32	4.27	26.8	3.36	6.08
AUUCACCUUGGUCAUUGGGUG [Fam2.2 aminoacylation ribozyme variant]	2.11	2.9	3.18	21.4	2.17	3.56

Sequence	self-aminoacylation (biotinyl-Ile-oxazolone)	self-aminoacylation (biotinyl-Met-oxazolone)	self-aminoacylation (biotinyl-Trp-oxazolone)	self-aminoacylation (biotinyl-Phe-oxazolone)	self-aminoacylation (biotinyl-Val-oxazolone)	self-aminoacylation (biotinyl-Leu-oxazolone)
AUUCACCUUGGUCUUCGGGUG [Fam2.2 aminoacylation ribozyme variant]	3.75	4.81	5.01	37.3	4.25	6.07
AUUCACGCAGGUCAUCGGGUG [Fam2.2 aminoacylation ribozyme variant]	3.54	4.55	5.58	41.6	4.58	4.77
AUUCACGUAGAUCAUCGGGUG [Fam2.2 aminoacylation ribozyme variant]	4.08	5.1	4.96	29.6	3.9	5.42
AUUCACGUAGGUCAUCGGUUG [Fam2.2 aminoacylation ribozyme variant]	1.2	1.23	0.72	4.98	1.24	1.35
AUUCACGUAGGUCAUCGUGUG [Fam2.2 aminoacylation ribozyme variant]	1.15	1.57	1.79	7.45	1.28	1.82
AUUCACGUAGGUCGUCGGGUG [Fam2.2 aminoacylation ribozyme variant]	2.61	2.48	2.44	9.34	3.81	2.35
AUUCACGUAGUUCAUCGGGUG [Fam2.2 aminoacylation ribozyme variant]	3.07	3.49	4.72	21.9	3.45	3.88
AUUCACGUAUGUCAUCGGGUG [Fam2.2 aminoacylation ribozyme variant]	5.2	8.47	7.42	73.5	5.58	9.38
AUUCACGUCGGUCAUCGGGUG [Fam2.2 aminoacylation ribozyme variant]	3.75	5.7	6.46	54.3	5.95	5.21
AUUCACGUGGGUCAUCGGGUG [Fam2.2 aminoacylation ribozyme variant]	5.57	9.61	9.93	94	8.26	7.84
AUUCACGUUGGUCAUCGGGUG [Fam2.2 aminoacylation ribozyme variant]	6.91	12.5	10.1	121	8	12.2
AUUCACUCAGGUCAUCGGGUG [Fam2.2 aminoacylation ribozyme variant]	3.48	4.85	4.79	41.3	4.16	6.71
AUUCACUUAGGCCAUCGGGUG [Fam2.2 aminoacylation ribozyme variant]	2.53	3.04	3.26	16	2.65	3.9
AUUCACUUAGGUCACCGGGUG [Fam2.2 aminoacylation ribozyme variant]	3.47	4.86	5.19	28.2	3.33	5.15
AUUCACUUAGGUCAUCCGGUG [Fam2.2 aminoacylation ribozyme variant]	4.64	6.26	6.84	43.4	4.72	8.78
AUUCACUUAGGUCAUCGGGUU [Fam2.2 aminoacylation ribozyme variant]	1.59	1.78	1.47	6.63	1.65	1.69
AUUCACUUCGGUCAUCGGGUG [Fam2.2 aminoacylation ribozyme variant]	5.12	7.48	7.68	55.8	5.73	10.1
AUUCAGCGAGGUCAUCGGGUG [Fam2.2 aminoacylation ribozyme variant]	4.46	6	7.06	44	5.33	7.8
AUUCAGCUAGCUCAUCGGGUG [Fam2.2 aminoacylation ribozyme variant]	2.69	3.07	3.74	20.2	3.41	3.86
AUUCAGCUAGGUCAGCGGGUG [Fam2.2 aminoacylation ribozyme variant]	2.71	3.79	4.28	21.8	2.53	4.01
AUUCAGCUAGGUCAUCGGCUG [Fam2.2 aminoacylation ribozyme variant]	1.63	1.55	2.02	11.6	1.86	1.52
AUUCAGCUAGGUCAUCGGGUU [Fam2.2 aminoacylation ribozyme variant]	2.81	3.1	3.38	18.7	2.79	2.5
AUUCAGCUAGGUCAUCGGUUG [Fam2.2 aminoacylation ribozyme variant]	0.882	1.16	1.25	5.67	0.865	1.07
AUUCAGCUAGGUCUUCGGGUG [Fam2.2 aminoacylation ribozyme variant]	4.2	5.01	4.96	36.2	4.24	5.34
AUUCAUCUAGGUCAUCGAGUG [Fam2.2 aminoacylation ribozyme variant]	2.63	3.88	3.67	4.08	2.38	4.86
